T1: human amylin-3 (a) receptor (human, UniProt P30988 25-474; O60896 24-148)
T1 sequence (looked up) 1: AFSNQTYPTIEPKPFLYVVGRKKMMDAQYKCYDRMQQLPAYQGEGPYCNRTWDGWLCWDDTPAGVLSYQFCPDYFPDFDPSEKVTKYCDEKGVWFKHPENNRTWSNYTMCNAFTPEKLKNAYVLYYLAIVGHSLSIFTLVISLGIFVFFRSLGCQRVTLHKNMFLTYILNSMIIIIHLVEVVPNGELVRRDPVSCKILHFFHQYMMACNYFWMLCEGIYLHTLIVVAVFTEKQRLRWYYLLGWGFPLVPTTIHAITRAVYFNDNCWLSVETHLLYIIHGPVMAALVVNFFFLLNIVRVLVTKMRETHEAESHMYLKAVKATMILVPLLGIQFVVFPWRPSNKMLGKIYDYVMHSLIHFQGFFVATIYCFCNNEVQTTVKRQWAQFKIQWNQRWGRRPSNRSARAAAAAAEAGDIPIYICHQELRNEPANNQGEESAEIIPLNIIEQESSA
T1 sequence (looked up) 2: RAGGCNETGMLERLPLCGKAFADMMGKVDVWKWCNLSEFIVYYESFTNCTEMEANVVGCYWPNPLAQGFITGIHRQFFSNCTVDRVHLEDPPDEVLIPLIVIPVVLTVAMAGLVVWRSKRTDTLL

B1: Compound 0271 (peptide)
peptide: HWEGTFTSDVSSYLEEK([AEEA-AEEA-γGlu-C18 diacid])AAREFIEWLVRGRGEASELSTAALGRLSAELHELATLPRTETGSGSP-NH2
B2: Compound 0268 (peptide)
peptide: HWEGTFTSDVSSYLEEQAAREFIAWLVRGRK([AEEA-AEEA-γGlu-Trx-C20 diacid])GGGGEASELSTAALGRLSAELHELATLPRTETGSGSP-NH2
B3: Compound 0270 (peptide)
peptide: HWEGTFTSDVSSYLEEK([AEEA-AEEA-γGlu-Trx-C20 diacid])AAREFIEWLVRGRGEASELSTAALGRLSAELHELATLPRTETGSGSP-NH2
B4: Compound 0272 (peptide)
peptide: HWEGTFTSDK([AEEA-AEEA-γGlu-Trx-C20 diacid])SSYLEEQAAREFIEWLVRGRGEASELSTAALGRLSAELHELATLPRTETGSGSP-NH2
B5: Compound 0284 (peptide)
peptide: H[Aib]EGTFTSDVSSYLEEQAAREFIAWLVRGK([AEEA-AEEA-γGlu-C16 diacid])GGGGGEASELSTAALGRLSAELHELATLK([AEEA-AEEA-γGlu-C16 diacid])RTETGSGSP-NH2
B6: Compound 0261 (peptide)
peptide: H[Aib]EGTFTSDK([AEEA-AEEA-γGlu-C16 diacid])SSYLEEQAAREFIAWLVRGRGGGGGEASELSTAALGRLSAELHELATLK([AEEA-AEEA-γGlu-C16 diacid])RTETGSGSP-NH2
B7: Compound 0259 (peptide)
peptide: H[Aib]EGTFTSDK([AEEA-AEEA-γGlu-C16 diacid])SSYLEEQAAREFIAWLVRGRGGGGGEASELSTAALGRLSAELHK([AEEA-AEEA-γGlu-C16 diacid])LATLPRTETGSGSP-NH2
B8: Compound 0255 (peptide)
peptide: HWEGTFTSDVSSYLEEQAARK([AEEA-AEEA-γGlu-Undecanoyl(11-OPh(4-COOH))])FIEWLVRGRGEGGGGGASELSTAALGRLSK([AEEA-AEEA-γGlu-Undecanoyl(11-OPh(4-COOH))])ELHELATLPRTETGSGSP-NH2
B9: Compound 0044 (peptide)
peptide: H[Aib]EGTFTSDVSSYLEGQAAK([εLys-AEEA-AEEA-γGlu-C18 diacid])EFIAWLVRGRGGGEASELSTAALGRLSAELHELATLPRTETGSGSP-NH2
B10: Compound 0273 (peptide)
peptide: HWEGTFTSDK([AEEA-AEEA-γGlu-C18 diacid])SSYLEEQAAREFIEWLVRGRGEASELSTAALGRLSAELHELATLPRTETGSGSP-NH2
B11: Compound 0263 (peptide)
peptide: H[Aib]EGTFTSDVSSYLEEQAAREFIAWLVRGRK([AEEA-AEEA-γGlu-Trx-C20 diacid])EASELSTAALGRLSAELHELATLPRTETGSGSP-NH2
B12: Compound 0254 (peptide)
peptide: HWEGTFTSDVSSYLEEQAARK([AEEA-AEEA-γGlu-Trx-C20 diacid])FIEWLVRGRGEGGGGGASELSTAALGRLSAELHELATLPRTETGSGSP-NH2
B13: Compound 0264 (peptide)
peptide: H[Aib]EGTFTSDVSSYLEEQAAREFIAWLVRGK([AEEA-AEEA-γGlu-Trx-C20 diacid])GGGGEASELSTAALGRLSAELHELATLPRTETGSGSP-NH2
B14: Compound 0235 (peptide)
peptide: H[Aib]EGTFTSDVSSYLEEQAAREFIAWLVRGK([AEEA-AEEA-γGlu-Decanoyl(10-O(3-COOH-Ph))])K([AEEA-AEEA-γGlu-Decanoyl(10-O(3-COOH-Ph))])GGGGASELSTAALGRLSAELHELATLPRTETGSGSP-NH2
B15: Compound 0281 (peptide)
peptide: H[Aib]EGTFTSDVSSYLEEQAAREFIAWLVRGK([AEEA-AEEA-γGlu-C16 diacid])GGGGGEASELSTAALGRLSAELHELK([AEEA-AEEA-γGlu-C16 diacid])TLPRTETGSGSP-NH2
B16: Compound 0040 (peptide)
peptide: H[Aib]EGTFTSDVSSYLEGQAAK([AEEA-AEEA-γGlu-C18 diacid])EFIAWLVRGRGGGGEASELSTAALGRLSAELHELATLPRTETGSGSP-NH2
B17: Compound 0269 (peptide)
peptide: HWEGTFTSDVSSYLEEQAAREFIEWLVRGRK([AEEA-AEEA-γGlu-Trx-C20 diacid])GGGGEASELSTAALGRLSAELHELATLPRTETGSGSP-NH2
B18: Compound 0285 (peptide)
peptide: H[Aib]EGTFTSDVSSYLEEQAAREFIAWLVRGK([AEEA-AEEA-γGlu-C16 diacid])GGGGGEASELSTAALGRLSAELHELATLPRTETGK([AEEA-AEEA-γGlu-C16 diacid])GSP-NH2
B19: Compound 0267 (peptide)
peptide: HWEGTFTSDVSSYLEEQAAREFIEWLVRGK([AEEA-AEEA-γGlu-Trx-C20 diacid])GEASELSTAALGRLSAELHELATLPRTETGSGSP-NH2
B20: Compound 0042 (peptide)
peptide: H[Aib]EGTFTSDVSSYLEGQAAKEFIAWLVRGRK([AEEA-AEEA-γGlu-C18 diacid])GGEASELSTAALGRLSAELHELATLPRTETGSGSP-NH2
B21: Compound 0266 (peptide)
peptide: H[Aib]EGTFTSDK([AEEA-AEEA-γGlu-Trx-C20 diacid])SSYLEEQAAREFIAWLVRGRGGGGEASELSTAALGRLSAELHELATLPRTETGSGSP-NH2
B22: Compound 0260 (peptide)
peptide: H[Aib]EGTFTSDK([AEEA-AEEA-γGlu-C16 diacid])SSYLEEQAAREFIAWLVRGRGGGGGEASELSTAALGRLSAELHELK([AEEA-AEEA-γGlu-C16 diacid])TLPRTETGSGSP-NH2
B23: Compound 0234 (peptide)
peptide: HWEGTFTSDVSSYLEEQAAREFIEWLVRGK([AEEA-AEEA-γGlu-Decanoyl(10-(4-HOOC-PhO))])GEGGGGGASELSTAALGRLSAELHELK([AEEA-AEEA-γGlu-Decanoyl(10-(4-HOOC-PhO))])TLPRTETGSGSP-NH2
B24: Compound 0280 (peptide)
peptide: H[Aib]EGTFTSDVSSYLEEQAAREFIAWLVRGK([AEEA-AEEA-γGlu-C16 diacid])GGGGGEASELSTAALGRLSAELHK([AEEA-AEEA-γGlu-C16 diacid])LATLPRTETGSGSP-NH2
B25: Compound 0265 (peptide)
peptide: H[Aib]EGTFTSDVSSYLEEK([AEEA-AEEA-γGlu-Trx-C20 diacid])AAREFIAWLVRGRGGGGEASELSTAALGRLSAELHELATLPRTETGSGSP-NH2

Starred links: 1 amine or outer side, 2 acyl side, 3 side chain; linkers in the order of their positions; H or OH if unused. Non-standard residues stand in square brackets, D forms with d. Groups on a side chain read outwards from the residue. *: point of attachment. Undecanoyl(11-OPh(4-COOH)) = O=C(O)c1ccc(OCCCCCCCCCCC(=O)*)cc1; Decanoyl(10-(4-HOOC-PhO)) = O=C(O)c1ccc(OCCCCCCCCCC(=O)*)cc1; Decanoyl(10-O(3-COOH-Ph)) = O=C(O)c1cccc(OCCCCCCCCCC(=O)*)c1; C20 diacid = O=C(O)CCCCCCCCCCCCCCCCCCC(=O)*; C18 diacid = O=C(O)CCCCCCCCCCCCCCCCC(=O)*; C16 diacid = O=C(O)CCCCCCCCCCCCCCC(=O)*; γGlu = O=C(O)[C@H](CCC(=O)[*:2])N[*:1]; εLys = N[C@@H](CCCCN[*:1])C(=O)[*:2]; Trx = NC[C@H]1CC[C@H](C(=O)O)CC1; AEEA = NCCOCCOCC(=O)O; Aib = CC(C)(N)C(=O)O

Consider 25 molecules from US20260132182A1 (published 2026).

The first experiment concerns the target T1, human amylin-3 (a) receptor. Kind of experiment: cell-based or functional assay.
As to B1, the “Human AmyR3 potency [EC50 (pM)]” value amounted to 15.2 pM.
On the same count and under the same terms, the same measure for B2: 14.4 pM; for B3: 8.6 pM.
Same read-out and setting: as for B4, the figure is 11.3 pM; as for B5, 32.8 pM.
The same measure, in the same setting: the same measure for B6: 23.9 pM.
As for B7, the “Human AmyR3 potency [EC50 (pM)]” value came out at 12 pM.
Still for that read-out and setting: as for B8, the figure is 28.6 pM; as for B9, 9.1 pM.
As for B10, the “Human AmyR3 potency [EC50 (pM)]” value came out at 18 pM.
Still for that read-out and setting: as for B11, the figure is 25.2 pM; as for B12, 7.7 pM; as for B13, 11.7 pM.
The same measure, in the same setting: the same measure for B14: 24 pM; for B15: 114 pM.
Still for that read-out and setting: the same measure for B16: 7.7 pM; for B17: 7.5 pM; for B18: 78.9 pM.
With B19, the “Human AmyR3 potency [EC50 (pM)]” value turned out to be 45.3 pM.
Still for that read-out and setting: the same measure for B20: 10.8 pM.
Same read-out and setting: the same measure for B21: 8.5 pM.
On to B22, for which the “Human AmyR3 potency [EC50 (pM)]” value came out at 41.8 pM.
Still for that read-out and setting: the same measure for B23: 38.4 pM; for B24: 18 pM.
Still for that read-out and setting: as for B25, the figure is 8.1 pM.

A further experiment concerns the target human GLP-1 receptor (human, UniProt P43220 24-463). Kind of experiment: cell-based or functional assay.
As for B1, the “Human GLP-1R potency [EC50 (pM)]” value is 4.6 pM.
Same read-out and setting: the same measure for B2: 26.4 pM; for B3: 6.3 pM.
Still for that read-out and setting: the same measure for B4: 9.2 pM; for B5: 41.7 pM; for B6: 17.4 pM.
Still for that read-out and setting: as for B7, the figure is 15.8 pM; as for B8, 2.5 pM.
Turning to B9, the “Human GLP-1R potency [EC50 (pM)]” value amounted to 16 pM.
Same read-out and setting: the same measure for B10: 24.9 pM; for B11: 13.8 pM; for B12: 8.9 pM.
On the same count and under the same terms, the same measure for B13: 6.5 pM; for B14: 10.4 pM; for B15: 35.2 pM.
Still for that read-out and setting: the same measure for B16: 20.7 pM; for B17: 7.7 pM; for B18: 19 pM.
Turning to B19, the “Human GLP-1R potency [EC50 (pM)]” value stood at 28.5 pM.
The same measure, in the same setting: the same measure for B20: 16.2 pM.
Still for that read-out and setting: the same measure for B21: 6.3 pM.
The same measure, in the same setting: as for B22, the figure is 11.9 pM; as for B23, 38.9 pM.
In the case of B24, the “Human GLP-1R potency [EC50 (pM)]” value was determined as 34.3 pM.
As for B25, the “Human GLP-1R potency [EC50 (pM)]” value was 6 pM.
